The results in this text go back to paper PMC4330359, “DNA-mediated cooperativity facilitates the co-selection of cryptic enhancer sequences by SOX2 and PAX6 transcription factors”.

Data set [1] addresses T1, Sox2-HMG long (109 aa) (mouse, UniProt P48432 41-149). As to the kind of experiment: NMR; 1:1.2 Sox2:DC5; EMSA: 10 mM Tris-HCl pH 8.0, 0.1 mg/ml BSA, 50 uM ZnCl2, 100 mM KCl, 10% glycerol, 0.1% IGEPAL CA-630, 2 mM 2-mercaptoethanol, 1-2 h, gel at 4 C, 100-300 nM DNA; NMR: 50 mM K phosphate, 100 mM NaCl, pH 7.0, 298 K. Particulars: protein: recombinant; blunt. For orientation: Mobility shift assays separate free from complexed probe on a gel.

The target in data set [2] is Sox2-HMG long (109 aa);Pax6-PRD R44Q (mouse;mouse?, UniProt P48432;P63015 41-149;4-130, |R44Q). Briefly: EMSA; cooperativity not affected by R44Q; EMSA: 10 mM Tris-HCl pH 8.0, 0.1 mg/ml BSA, 50 uM ZnCl2, 100 mM KCl, 10% glycerol, 0.1% IGEPAL CA-630, 2 mM 2-mercaptoethanol, 1-2 h, gel at 4 C, 100-300 nM DNA; NMR: 50 mM K phosphate, 100 mM NaCl, pH 7.0, 298 K. Particulars: protein: recombinant;recombinant; tags: ;; copies: 1;1; label: 5'-FAM or 5'-Cy5; blunt.

Data set [3] deals with Sox2-HMG long (109 aa);Pax2-PRD (mouse;mouse?, UniProt P48432;P32114 41-149;15-141, |). As to the kind of experiment: EMSA; cooperative; EMSA: 10 mM Tris-HCl pH 8.0, 0.1 mg/ml BSA, 50 uM ZnCl2, 100 mM KCl, 10% glycerol, 0.1% IGEPAL CA-630, 2 mM 2-mercaptoethanol, 1-2 h, gel at 4 C, 100-300 nM DNA; NMR: 50 mM K phosphate, 100 mM NaCl, pH 7.0, 298 K. Particulars: protein: recombinant;recombinant; tags: ;; copies: 1;1; label: 5'-FAM or 5'-Cy5; blunt.

In data set [4] the target is Sox2-HMG long (109 aa);Pax8-PRD (mouse;mouse?, UniProt P48432;Q00288 41-149;9-135, |). Described as above. The note with it: protein: recombinant;recombinant; tags: ;; copies: 1;1; label: 5'-FAM or 5'-Cy5; blunt.
Data set [5] has as its target Sox2-HMG long (109 aa);Pax9-PRD (mouse;mouse?, UniProt P48432;P47242 41-149;4-130, |). Described as above. The note with it: protein: recombinant;recombinant; tags: ;; copies: 1;1; label: 5'-FAM or 5'-Cy5; blunt.
Data set [6] deals with Sox2-HMG long (109 aa);Pax3-PRD (mouse;mouse?, UniProt P48432;P24610 41-149;34-161, |). Described as above. The note with it: protein: recombinant;recombinant; tags: ;; copies: 1;1; label: 5'-FAM or 5'-Cy5; blunt.
In data set [7] the target is T1, Sox2-HMG long (109 aa). As to the kind of experiment: EMSA; binary Sox2-DNA complex prominent; EMSA: 10 mM Tris-HCl pH 8.0, 0.1 mg/ml BSA, 50 uM ZnCl2, 100 mM KCl, 10% glycerol, 0.1% IGEPAL CA-630, 2 mM 2-mercaptoethanol, 1-2 h, gel at 4 C, 100-300 nM DNA; NMR: 50 mM K phosphate, 100 mM NaCl, pH 7.0, 298 K. The note with it: protein: recombinant; label: 5'-FAM or 5'-Cy5; blunt.

T1 sequence (P48432 41-149): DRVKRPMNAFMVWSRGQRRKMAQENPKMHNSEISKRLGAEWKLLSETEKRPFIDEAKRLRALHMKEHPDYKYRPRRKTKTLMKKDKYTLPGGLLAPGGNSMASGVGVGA
Sequence of Sox2-HMG long (109 aa);Pax8-PRD (P48432 41-149, chain 1 of 2): as the sequence (P48432 41-149) above
Sequence of Sox2-HMG long (109 aa);Pax8-PRD (Q00288 9-135, chain 2 of 2): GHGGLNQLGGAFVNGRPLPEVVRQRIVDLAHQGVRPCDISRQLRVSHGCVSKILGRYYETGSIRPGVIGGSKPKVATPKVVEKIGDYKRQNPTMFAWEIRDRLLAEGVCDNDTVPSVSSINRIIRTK
Sequence of Sox2-HMG long (109 aa);Pax2-PRD (P48432 41-149, chain 1 of 2): as the sequence (P48432 41-149) above
Sequence of Sox2-HMG long (109 aa);Pax2-PRD (P32114 15-141, chain 2 of 2): as the sequence (Q00288 9-135, chain 2 of 2) above, with G1R, L5V, A11V, E20D, D28E, R64K, E82D, G85A, D86E, V108I counted along it
Sequence of Sox2-HMG long (109 aa);Pax3-PRD (P48432 41-149, chain 1 of 2): as the sequence (P48432 41-149) above
Sequence of Sox2-HMG long (109 aa);Pax3-PRD (P24610 34-161, chain 2 of 2): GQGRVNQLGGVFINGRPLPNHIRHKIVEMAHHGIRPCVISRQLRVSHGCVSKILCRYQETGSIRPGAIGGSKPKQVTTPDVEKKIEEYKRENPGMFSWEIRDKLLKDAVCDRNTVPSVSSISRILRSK
Sequence of Sox2-HMG long (109 aa);Pax9-PRD (P48432 41-149, chain 1 of 2): as the sequence (P48432 41-149) above
Sequence of Sox2-HMG long (109 aa);Pax9-PRD (P47242 4-130, chain 2 of 2): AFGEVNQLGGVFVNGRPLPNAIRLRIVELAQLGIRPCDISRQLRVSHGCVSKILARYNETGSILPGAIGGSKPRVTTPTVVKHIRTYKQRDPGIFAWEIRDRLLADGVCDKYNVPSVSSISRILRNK
Sequence of Sox2-HMG long (109 aa);Pax6-PRD R44Q (P48432 41-149, chain 1 of 2): as the sequence (P48432 41-149) above
Sequence of Sox2-HMG long (109 aa);Pax6-PRD R44Q (P63015 4-130 R44Q, chain 2 of 2): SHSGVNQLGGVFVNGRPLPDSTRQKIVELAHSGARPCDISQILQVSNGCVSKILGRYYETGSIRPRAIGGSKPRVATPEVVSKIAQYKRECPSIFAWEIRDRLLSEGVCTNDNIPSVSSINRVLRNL

B1: DC5 31-mer (NMR) (dsDNA)
DNA 1: TTCATTGTTGTTGCTCACCTACCATGGATCC
DNA 2: GGATCCATGGTAGGTGAGCAACAACAATGAA
As for B1, the binding result with Sox2-HMG long (109 aa) [1] is “binds”.

B2: DC5 (dsDNA)
DNA 1: AAATATTCATTGTTGTTGCTCACCTACCATGGATCC
DNA 2: GGATCCATGGTAGGTGAGCAACAACAATGAATATTT
For the molecule B2, the binding result in data set [2], in data set [3], in data set [4], in data set [5] and in data set [6] was “binds” each time.

B3: DC5con (dsDNA)
DNA 1: AAATATTCATTGTTGATGTTCACGCATCATGGATCC
DNA 2: GGATCCATGATGCGTGAACATCAACAATGAATATTT
For B3, in the data set with Sox2-HMG long (109 aa) [7], the binding result is recorded as “binds”.
